# Test results reported in the supplement of paper PMC12042874.
# ± gives the uncertainty stated by the source.
# Test: amyloid nucleation score (Sup35N fusion, yeast selection) (log enrichment); library NNK1; higher = more nucleation; inactive = no reads after selection
# In short: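 For the nucleation score, DiMSum gave the log enrichment of output over input reads, centred on the mode score of non-aggregating sequences. Psi-negative yeast expressing Sup35N fused to peptides of 20 random codons were induced with 100 μM copper sulfate for 24 hours and grown 7 days at 30°C on medium lacking adenine and uracil. Input and output plasmid inserts were Illumina-sequenced, and sequences with under 100 input reads were excluded.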
row,Substance,amyloid nucleation score
1,TVFDSLC,0.372 ± 1.2
2,TGNYDYVSFNQRKLHGCFNQ,-0.652 ± 0.93
3,FRLARGVVWCPGGISC,-0.536 ± 0.42
4,FRHGKVWSLLKLGADAGREE,0.098 ± 0.91
5,IWVHHRSVTKSWLKMVAWNH,-0.514 ± 0.43
6,DYGNTVNYSSGEDVHWL,-0.592 ± 1.7
7,KADQCLSWDS,-0.717 ± 0.97
8,KCMEIILVLRVVRKWGSGGM,0.654 ± 0.97
9,DASSKIRPSIGRMQKHWY,-0.513 ± 0.85
10,LFRNANAMDYVVRCWCSRGI,0.928 ± 0.18
11,ITNFMGGIRVYRCDASMKGG,0.395 ± 0.28
12,YLILYPRASFKYAIILWSCF,-0.749 ± 0.42
13,ILWFYYTLGACFCWLYINYK,0.26 ± 0.57
14,CLQDMFFTNELSFAGTLLIS,0.049 ± 0.34
15,LAPNNYAFHVNKSWGMNLVW,1.05 ± 0.2
16,RYTEAASICRLVLGGQGVRI,-0.155 ± 0.96
17,NAACLVLGNVSSFEYSSQMG,2.41 ± 0.27
18,MALLRLDIITFRNESCSEPN,-0.046 ± 0.26
19,GGPVREYTRMSPSVGVLDEA,0.489 ± 0.86
20,FFSYRDSISVKR,-0.449 ± 0.75
21,WTLCMPKCGWRQSFSLRSRR,-0.294 ± 0.47
22,YECKVYKSK,0.466 ± 0.47
23,FLVLND,0.273 ± 0.2
24,IPMPMLRRKKTGYLLSTGSA,0.532 ± 0.49
25,SVGMVLFLGCGLLLFRFLCG,-0.359 ± 1.2
26,YFDWTRVGYNYGSILLPVEA,0.135 ± 0.51

row,Substance,amyloid nucleation score
1,TVFFPFLTNSRGDRLRDCWM,-0.65 ± 1.1
2,NTTYQTYR,4.31 ± 0.074
3,ISVCFWSIKYRSWAILMPKG,0.077 ± 0.58
4,MRPPGNPGWWVRRKARWDPG,-0.506 ± 1
5,CFFPVSPFFIIRGKIQIFYL,-2.51 ± 2.7
6,CVAWVSSNPRVGGDIRTWTE,0.021 ± 0.48
7,HLSLPNVPVALWKRSRPVTM,1.26 ± 0.85
8,SRFKTDYTG,-0.492 ± 0.68
9,SLQPVYAATCSSFHYSFFAG,4.89 ± 0.074
10,YDSRCMAVSFSGSLFSHLLE,-0.317 ± 0.45
11,NYIMTRHPPLGISLPEVGRS,-0.81 ± 0.85
12,LSGTNASIWY,-0.212 ± 0.35
13,CLLVLLLGLRLPYRPRLVFV,0.463 ± 0.79
14,VTKLNMILMVGTVYGSNIGV,6.782 ± 0.05
15,WIPGRLLSAVKVGSNSLVF,-0.637 ± 0.62
16,LSRILLRKNC,0.224 ± 0.61
17,WGQLIRGRNRSSQGEEMRYL,-0.148 ± 0.26
18,HMRYWLLQYGVILAQG,0.71 ± 0.42
19,TQMNR,-0.89 ± 0.51
20,NFNRRRLCIIMKFDDPPLHG,0.102 ± 0.24
21,CLFNQKGMFTSGCKVYLTLV,-0.152 ± 0.27
22,AYLNREFGFLFTLNFGCGFF,-0.636 ± 0.39
23,SSIESSYGKFLRGIVSESIK,0.485 ± 0.55
24,VAGFPVEDRLRQISSWAVSG,-1.07 ± 0.62
25,HRGTDLSLRSWVDWLHTLRG,0.67 ± 0.57
26,NLSIYIYSNNLLLNVF,6.194 ± 0.052

row,Substance,amyloid nucleation score
1,ILCFFRECLLDWVSLGRFIV,inactive
2,GIVSAESWSLLQDRHFGAVK,0.578 ± 0.55
3,SYRSVG,0.25 ± 0.59
4,NYVSLGDVKRRMPGLFELTA,0.048 ± 0.43
5,LPALKCELGAAMLSAQLMAR,-0.18 ± 0.24
6,IMLANVSLLVRNHGRY,3.02 ± 0.16
7,PTGNGKLFSGKYYPYDVRRS,-0.169 ± 0.29
8,GMYPGESSWKLEKEVIL,0.539 ± 0.6
9,RRRMFSCLDPEVWEVQRGRV,-0.348 ± 0.68
10,FFLMQYILYYKKQSDMFVSL,-0.912 ± 1.7
11,WVTQVDWSGRR,-0.348 ± 0.77
12,VMCQCYSGGM,1.31 ± 0.4
13,LIRREHSRL,inactive
14,FFINQRDLLS,-0.084 ± 0.46
15,MGFDLSRRTCLYYLVTLSW,0.014 ± 1.1
16,IIILYMLRPAMSGWDVFACC,0.627 ± 0.18
17,KGHSANVYTAPLLCNNCHFF,6.703 ± 0.059
18,MYSHFCVYCNFYLSCNSSLI,7.034 ± 0.05
19,EDHVVYQSADRFLRNCNWEY,0.266 ± 0.43
20,RSYESCRAWLDEDGSVPIEC,1 ± 0.49
21,NFRAWS,0.129 ± 0.93
22,RVKEPFRTYSRTALMC,0.306 ± 0.41
23,FRWPSLLGNLLKLGVDTAD,-0.126 ± 0.38
24,VMCVTIMSVFWNGLRNVEAM,0.977 ± 0.18
25,EVEQVHLFSAVINSWCGDVF,0.575 ± 0.41
26,SWWVGTCFSGQWTVLGFP,0.961 ± 0.69

row,Substance,amyloid nucleation score
1,QMGCAYEDARRSHDFKCCFG,0.013 ± 0.42
2,ILVLYSVRWIEATR,-0.224 ± 0.35
3,HSSSSHGEKCGYVGNSHPSS,0.691 ± 0.92
4,RVNLKGWKRHSIRRSNMYRV,inactive
5,FHDLGSKCYSMRGTADCFSR,0.347 ± 0.72
6,LSNFDRWKTSTVWNSGWFAA,-0.149 ± 1.3
7,DKSFDFVLGSEACMVVEVGN,-0.496 ± 0.61
8,STWLLGQRRYPRHKERGRAR,0.101 ± 0.35
9,MPNSPQS,-0.404 ± 0.3
10,GGYGERRDVVVDRSYTVDTG,0.071 ± 0.62
11,DIGAVIAWSNRLVWLQPTLL,-0.506 ± 0.84
12,RPHSGVIDDL,0.349 ± 0.51
13,TSYTNAVFESNFA,-0.426 ± 0.3
14,QRECWMYMMFMGYHLLEAQV,0.215 ± 1.2
15,WLWINPMEVDYGVLTRLEKT,-0.213 ± 0.26
16,TIWDSRTSFVYS,0.254 ± 0.56
17,TEELYTGVTFL,-1.93 ± 1.5
18,LVWGFFSHRM,2.37 ± 0.14
19,EAGHSIFNGNWRGID,-0.536 ± 1.2
20,TYFSISQLLGFFQSVGPYVF,0.108 ± 0.56
21,GKSEVLTFGEGAHVGRSRFY,0.367 ± 0.46
22,VLLQELLSYITIGCLELGFG,0.11 ± 0.3
23,VCNFLFAFSFW,6.746 ± 0.064
24,NVMSSPCIRVGMLRMGVTKS,1.62 ± 0.51
25,CVTCFTLGSVRGKRTASACW,0.322 ± 0.18
26,KFVTVKTRQLKSAGASIVSG,-0.119 ± 0.69

row,Substance,amyloid nucleation score
1,ILSRKGLLVQRKRVNVVVIP,0.437 ± 0.32
2,EPCCDVRVKGLYMFEYYVVC,0.185 ± 1.1
3,CVSEDDMLLDYDPVCKFVWW,2.62 ± 0.15
4,RGNDLFTQVASMKSV,-0.207 ± 0.55
5,RANSYGGMSNVLW,0.281 ± 0.28
6,AAKRM,1.11 ± 0.52
7,RVSMVEVNLIYYMLPGHA,-0.125 ± 0.54
8,DTSYGLQRVCKGR,0.429 ± 0.53
9,CPRHVALGHLNYLGQDFDLK,0.326 ± 1.2
10,HCYHGRGADR,0.181 ± 0.74
11,VGWTALVQALGNGTQHGVVT,0.394 ± 0.78
12,SKIHYMF,-0.942 ± 0.57
13,GNIDGICERSCNRFANYIQG,1.11 ± 0.49
14,SHRRGVKSTFLMRRLHYMWY,0.168 ± 0.62
15,CWGFYL,-0.976 ± 1.1
16,WVCRSISPLVRTSLPRYWRN,inactive
17,VSCANMNIDELTWHVDWWCL,7.597 ± 0.047
18,FYGMDLSVSRFF,0.031 ± 0.47
19,MHPFVRSEK,0.168 ± 0.36
20,IDCGIVRWKNRCGAYAFGVD,-1.52 ± 2.4
21,RNSRAMIFEMHVVGLWWQSC,-0.538 ± 2.1
22,MTDMVVSCCMPAEVQRRSGA,0.009 ± 1.1
